Results: PMC10030653, “ClpC2 protects mycobacteria against a natural antibiotic targeting ClpC1-dependent protein degradation” (Communications Biology, 2023)

Assays:
[1] = biological target: cyclomarin A (Streptomyces sp. CNB-982); assay: ITC; 50 uM (monomer) ClpC1 NTD or ClpC2 titrated into 5 uM CymA at 37 C; 50 mM HEPES-KOH pH 7.5, 150 mM KCl, 9% DMSO, 1 mM EDTA; one-site binding model
[2] = tested on: DNA probe containing the clpC2 operator site; assay: EMSA, ClpC1 binding to DNA
ClpC1 NTD = settings: cited from earlier work
ClpC2 WT = biological target: T1, ClpC2 WT (Mycobacterium tuberculosis, UniProt P9WPC7 1-252); assay: EMSA; 1-25 nM ClpC2, 0.5 nM DNA, no CymA; EMSA: 5 mM HEPES-KOH pH 7.5, 30 mM KCl, 1% glycerol, 10 mM MgCl2, room temperature 20 min, 12% polyacrylamide gel; settings: protein: recombinant; tags: untagged; chain copies: 2; label: 5'-FAM; blunt
T1 sequence: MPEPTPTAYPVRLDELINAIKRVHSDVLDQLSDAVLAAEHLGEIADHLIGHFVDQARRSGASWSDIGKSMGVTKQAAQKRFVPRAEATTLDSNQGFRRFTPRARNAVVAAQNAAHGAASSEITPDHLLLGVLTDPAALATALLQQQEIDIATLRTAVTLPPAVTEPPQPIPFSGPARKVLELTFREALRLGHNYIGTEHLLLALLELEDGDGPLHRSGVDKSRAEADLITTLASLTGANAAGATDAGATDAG

ClpC1 = ClpC1 (Mycobacterium tuberculosis, UniProt P9WPC9 1-848); assay: EMSA; 1-25 uM ClpC1, 0.5 nM DNA; EMSA: 5 mM HEPES-KOH pH 7.5, 30 mM KCl, 1% glycerol, 10 mM MgCl2, room temperature 20 min, 12% polyacrylamide gel; settings: protein: recombinant; tags: untagged; label: 5'-FAM; blunt
ClpC1, sequence (P9WPC9 whole entry): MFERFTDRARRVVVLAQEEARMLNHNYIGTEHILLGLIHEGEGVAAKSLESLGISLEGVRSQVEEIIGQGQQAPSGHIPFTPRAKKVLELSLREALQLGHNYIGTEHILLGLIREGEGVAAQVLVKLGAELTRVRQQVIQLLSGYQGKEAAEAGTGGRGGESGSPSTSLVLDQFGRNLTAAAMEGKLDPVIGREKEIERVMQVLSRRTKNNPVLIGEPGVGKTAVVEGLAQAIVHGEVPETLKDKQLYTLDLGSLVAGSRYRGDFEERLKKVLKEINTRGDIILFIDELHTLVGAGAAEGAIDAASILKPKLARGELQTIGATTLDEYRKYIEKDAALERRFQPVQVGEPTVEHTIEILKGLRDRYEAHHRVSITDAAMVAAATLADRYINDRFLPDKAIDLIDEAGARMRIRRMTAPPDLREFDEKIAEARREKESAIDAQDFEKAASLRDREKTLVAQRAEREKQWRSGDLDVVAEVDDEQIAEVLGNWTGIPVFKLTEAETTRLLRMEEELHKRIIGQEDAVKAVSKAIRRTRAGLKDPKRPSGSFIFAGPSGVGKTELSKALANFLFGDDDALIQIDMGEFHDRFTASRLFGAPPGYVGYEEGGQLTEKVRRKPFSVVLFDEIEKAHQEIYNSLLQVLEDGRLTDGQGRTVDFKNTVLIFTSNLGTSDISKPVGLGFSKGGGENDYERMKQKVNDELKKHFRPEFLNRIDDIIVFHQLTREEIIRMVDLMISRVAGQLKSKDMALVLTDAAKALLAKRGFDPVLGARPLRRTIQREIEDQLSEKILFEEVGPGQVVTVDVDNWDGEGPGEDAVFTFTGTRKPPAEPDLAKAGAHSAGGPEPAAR

Molecule: ClpC1 N-terminal domain, residues 1-145 (ClpC1 NTD) (from UniProt P9WPC9 1-145) (domain or fragment)
- Kd [1]: 2.3 nM

Molecule: ClpC1: AAA+ chaperone ClpC1, purified Mtb protein
- affinity of ClpC1 for DNA relative to ClpC2 ([2]; EMSA): at least two orders of magnitude lower affinity than exhibited by ClpC2
- sequence specificity of ClpC1 for clpC2 operator site ([2]; EMSA with unlabelled competitor DNA): little sequence specificity for the clpC2 operator site
- KD, ClpC1 to DNA ([2]; EMSA, 1-25 µM ClpC1, 0.5 nM DNA probe with clpC2 operator site): low micromolar range

Molecule: Mycobacterium tuberculosis ClpC2 (full length, wild type) (natural protein)
- Kd [1]: 2.2 nM
- stoichiometry N [1]: 1

Molecule: ecumicin
- target binding domain (ClpC1 NTD): specifically target ClpC1 NTD

Molecule: lassomycin
- target binding domain (ClpC1 NTD): specifically target ClpC1 NTD

B1: clpC2_FAM_EMSA 41 bp operator probe (dsDNA)
DNA 1: ACAATGCATAACGTCAACCTACTGTTGACGTCATGCCGGAG
DNA 2: CTCCGGCATGACGTCAACAGTAGGTTGACGTTATGCATTGT
- binding result (ClpC2 WT): binds
- binding result (ClpC1): binds
